Test results from the nanobody polyreactivity screen of Harvey et al. (2022).

Test: yeast display, Sf9 membrane polyspecificity reagent, FACS + sequencing; frameworks hold sequencing errors
Method in brief: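 Using colony PCR, genes from sorted yeast display clones were amplified, then sequenced on MiSeq at 2 × 250 and filtered by CDR length. The clones had been stained with 10% biotinylated, detergent-solubilized Sf9 membrane reagent for 1 hour at 4 °C and sorted by FACS into low and high (top ~1%) gates on anti-HA and streptavidin fluorescence. Polyreactivity labels come from the gate of origin.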

Sequence	polyreactivity (PSR sort gate)
QVQLVESGGGLVQAGGSLRLSCAASGFIFYSYAMGWSRQAPGKERELVAAISSTGTSTYYADSVKGRFTISRDNAKNTVYLQMNSLKPEDTAVYYCNAGYAFDPDETYDYWGQGTQVTVSS	low polyreactivity
QVQLVESGGGLVQAGGSLRLSCAASGITFEYYAMGWYRQAPGKERELVAAIDTGGSTNYADSVKGRFTISRDNAKNTVYLQMNSLKPEDTAVYYCAADWSWWDGEDYHFEYDYWGQGTQVTVSS	low polyreactivity
QVQLVESGGGLVQAGGSLRLSCAASGSTFAYYVMGWYRQAPGKERELVAAISRGGRTYYADSVKGSFTISRDNAKNTVYLQMNSLKPEDTSVYYCNKVYVVYSRSKGFYYTYLKYEYWGQGTQVTVSS	low polyreactivity
QVQLVESGGGLVQAGGSLRLSCAASGSIFGGYALGWYRQAPGKERELVAAISKTGGTTYYADSVKGRFTISRDNALNTVYLQMNSLKPEDTAVYYWNAPKRYYGSAYGYGYWGQGTQVTVSS	high polyreactivity
QVQLVESGGGLVQAGGSLRLTCAASGLILDGYAMGWYRQAPGKERELVAAITRSGGRTYYADSVKGRFTISRDNAKNTVYLQMNSLKPEDTAVDYCAADTYRYHLIATDDYWGQGTQVTVSS	high polyreactivity
QVQLVESGGGLVQAGGSLRLSCAASGSIFLYNAMGWYRQAPGKERELVATITYIGGRTYYADSVKGRFTISRDNAKNTVYLQMNSLKPEDSAVYYCAAEYYVISSPSFYEYDYWGQGTQVTVSS	low polyreactivity
QVQLVESGGGLVQAGGSLRLSCAASGSTFDYNAMGGYRQAPGKERELVAAISRGGNTYYADSVKGRFTISRDNAKNTVYLQMNSLKPEDTAVYYCAKDSYGSYRFVRNRQKAYGYWGQGTQVTVSS	low polyreactivity
QVQLVESGGGLVQAGGSLRLSCAASGITFHGNTMGWYRQAPGKERELVAGISTSGSITYYADSVKGRFTISRDNAKKTVYLQMNSLKPEDTAVYYCAAVSHATQIAERGYWGQGTQVTVSS	low polyreactivity
QVQLVESGGGLVQAGGSLRLSCAASGRTFRRNAMGWYRQAPGKERELVAAISFSAGRTYYADSVKGRFTISRDNAKNTVYLQMNSLKPEDTAVYYCNALRQDTGHYPYDYWGQGTQVTVSS	low polyreactivity
QVQLVESGGGLVQAGGSLRLSCAASGFIFPNYAMGWYRQAPGKEREFVASISWSGGSTYYADSVKGRFTISRDNAKNTVYLQMNSLKPEDTEVYYCNAVAFFNHGAGEDYWGQGTQVTVSS	high polyreactivity
QVQLVESGGGLVQAGGSLRLSCAASGSIFYRYAMGWYRQAPGKERELVSSISSGVSTNYADYVKGRFTISRDNAKNTVYLQINSLKREDTAVYYWAAYYRGWSSSYWFPAYNYWGQGTQVTVSS	low polyreactivity
QVQLVESGGGLVQAGGSLRLSCAASGSTFRDNAMGWYRQAPGKERELVAAISRSGARTYYADSVKGRFTISRDNAKNTVYLQMNSLKPEDTAVYYCNAVWRVKYRRGLDYWGQGTQVTVSS	high polyreactivity
QVQLVESGGGLVQAGGSLRLICAASGRIFDFYAMGWYRQAPGKERELVAAITNGGRTNYADSVKGRFTISRDNAKNTVYLQMNSLKPEDTAVYYCAARLAYWYYYAWRGPYYYWGQGTQVTVSS	high polyreactivity
QVRLVESGGGLDQAGGSLRLSSAASGRIFNRNAMGWYRQAPGKARELVAAINRGGSTNYADSVKGRFTISRDNAKNTVYLQLNRLKPEDTAVYYCAAELLYATLWRRYSGYYYWGQGTQVTVSS	high polyreactivity
QVQLVESGGGLVQAGGSLRLSCAASGSIFGANTMGWYRQAPWKERELVAGITSRARTYYADSVKGRFTISRDNAKNTVYLQMNSLKPEDTAVYYCAAKYAWRRYGYWGQGTQVTVSS	high polyreactivity
QVQLVESGGGLVQAGGRLRLSCAASGITYTVYAMGWYRQAPGKERELLAAISSSGSTTYADSVNGRFTISRDNAKNTVYLLMNSLKPEDTAVYDCAAEGYYRFSTAYFRLKYEYWGQGTQVTVSS	low polyreactivity
QVQLVESGGGLVQAGGSLRLSCAASGRTFHSNAMGWYRQAPGNDRELVASSRRGSRTYYADSVKGRFTISRDNAKNTVSLQLTSLKPEDTAVYYCAAAQVGYYVGSVTYGYWGQATQVTVSS	high polyreactivity
QVQLVESGGGLVQAGGSLRLSCAASGRIFGINAMGWYRQAPGKERELVAAINWSGGSTYYADSVKGRFTISRDNAKNTVYIQMNSLKPEDSAVYYCAAQKYKRVGYWGQGTQVTVSS	high polyreactivity
QVQLVESGGGLVQAGGSLRLSCAASGSISGYYAMGWYRQAPGKESELVASIRYTGARTYYADSVKGRFTISRDNAKNTVYLQMNSLKPEDTAVYYCAADVKRDRVWGGDYWGQGTQVTVSS	low polyreactivity
QVQLVESGGGLVQAGGSLRLSCAASGRTFVYYDMGWYRQAPGKERELVAAISRRGDTTYYADSVKGRFTISRDNAKNTVYLQMNSLKPVDTAVYYCNARSIKYGSWGQGTQVTVSS	high polyreactivity
QVQLVESGGGLVQAGGSLRLSCAASGRIFEVYAMGWYRQAPGKERELVARISDGGGSTYYADSVKGRFTISRDNAKNTVYLQMNSLKPEDTAVYYCAAGGDLRLDRRFAFVSRGDYWGQGTQVTVSS	low polyreactivity
QVQLVESGGGLVQAGGSLRLSFAASGSIFASNAMGWYRQAPGKERELVAAISKRGGSTYYVDSVKGRFTISRDNAKNTVYFQMNSLKPEDTAVYYCNTYIRQDAPGQYDYWGQGTQVTVSS	high polyreactivity

Sequence	polyreactivity (PSR sort gate)
QVQLVESGGGLVQAGGSLRLSCAASGRIIYTYAMGWYRQAPGKERELVAAISWSGGSTYYADSVKGRFTISRDNAKNTVYLQMKSLKPEDTAVYFCNAAYYGYENLSKRGYWGQGTQVTVSS	high polyreactivity
QVQLVESGGGLVQAGGSLSLSCAASGRIFGHNAMGWYRQAPGKERELVATISSGVRTNYADSVKGRFTISRDNAKNTVYLQMNSLKPEDTAVYYCATKTYQFGYSSYYYWGQGTQVTVSS	high polyreactivity
QVQLVESGGGLVQAGGSLRLSCADSGRTFSSYAMGWYRQAPGKERELVARISSSGGRTSYADSVKGRFTISRDNAKNTVYLQMNSLKPEDTAVYYCAKTYHWLYDYWGQGTQVTVSS	high polyreactivity
QVQLVESGGGLVQAGGSLRLSCAASGLILRRYAMGWYRQAPGKERELVAAITSGGRTYYADSVKGRFTISRDNAKNTVYLQMNSLKPEDTAVYYCNAVKLVRHTTPYDYWGQGTQVTVSS	high polyreactivity
QVQLVESGGGLVQAGGSLRLSCAASGFTFWLYSMGWYRQAPGKERELVAAISWSGGSTYYADSVKGRFTISRDNAKNTVYFQMNSMKPEDPAVYYCAAVKYVRCAEFYYWGQGTQVTVSS	high polyreactivity
QVQLVESGGGLVQAGGSLRLSCAASGRIFKSNAMGWYRQAPGKERELVASISRSGSTNYADSVKGRFTISRDNAKNTVYLQMNSLKPEDTAVYYCAKDPDAKGGGYDYWGQGTQVTVSS	low polyreactivity
QVQLVESGGGLVQAGGSLRLSCAASGRIFTHNAMGWYRQAHGKERELVAAISYSGVSTYYADSVKGRFTISRDNAKNTVYLQMNSLIPEDTAVYYCARRYWYPDAFYRYDYWGQGTQGTVSS	low polyreactivity
QVQLEESGGGLVQAGGSLRLSCAASGSTLKLNAMGWYRQAPGKERELVASINFSGGSTYYAYSVKGRFTISRDNAKNTVYLQMNSLKPEDTAVYYCAAEASSYSRSVRWRYVYYYWGQGTQVTVSS	high polyreactivity
QVQLVESWGGLFQAGGSLRLSCAASGRTFSYNAMGWYRQAPGKERELVAAMTWRGSTTYYADSVKGRFTISRDHAKNTVYLQMNSLKPEDTAVYYCADATGQPYILDYWGQGTQVTVSS	low polyreactivity
QVQLVESGGGLVQAGGSLRLSCAASGRTFLGYSMGWYRQAPAKERELVAAISGSCDRTYYADSVKGRFTISRDNAKHTVYLQMYSLKPEYTEVYYCNAVTVRYYASYYGRGMDYWGQGTQETVSS	high polyreactivity
QVQLQESGGGLEQAGGSLRMSCAASGTIFSEANMGWYRQAPGKERELVATIGQGSTTNYADSVKGRFTISRDNAKNTVYLQMNSLKPEETPVYYCAVVTVDPVGFVYWGQGTQVTVSS	low polyreactivity
QVQLVESGGGLVQAGGSLRLSCAASGSIFNYYAMGWYRQAPGKEREFVADISGSGSSTYYADSVKGRFTISRDNAKNTVYLQMNSLKPEDTAVYYCNAEYYWGVGYYPYSDYGYWGQGTQVTVSS	low polyreactivity
QVQLEESGGGLVQAGGSLRLSCAASGITFLTYAMGWYRQATVKERELVAGITSGGTTYYADSVKGRFTISRDNAMNTVYLQMNSLKPEDTAVYYCNADLQEYQSYDYWGQGTQVTVSS	low polyreactivity
QVQLVESGGGLVQAGGSLRLSCAASGSIMGWYRQAPGKERELVAAISRGGSTYYADSVKGRFTISRDNAKNTVYLQMNSLKPEDTAVYYCAAKTGGSRSRFEYWGQGTQVTVSS	high polyreactivity
QVQLVESGGGLVQAGGSLRLSCAASGRTFKYNVMGWYRQAPGKERELVAAISSGGGTNYADSVKGRFTISRDNAKNTVYLQMNSLKPEDTAVYYCAAKYAWRLLEMYYWGQGTQVTVSS	low polyreactivity
QEQLQESGGCLVQAGGSLRLSCAASGSIFKVVDMGLYRQSPAKEREFVATIGEGGKTYYADSVKGRFTISRDNEKNTVYLQMNSLKPEDTAVYFYAVVLGTSYRYTYWGEGTQVTVSS	low polyreactivity
QVQLVESGGGLVQAGGSLRLSCAASGFIFRYYAMGWYRQAPGKERELVAAIDYSGGSTNYADSVKGRFTISRDYAKNTVYLQMNSQKPEDTAVYYCNAEYTWHRGYDYWGQGTQVTVSS	low polyreactivity
QVPLVESGGGLVQAGGSLRISCAASFRYNTMGWYRQAPGKERELVAAISGSGSRTYYADSVKGRFTISRDNAKITVYLQMNSLKPEDTAVFYCAALSYRNSEVGTSRGDYWGQGTQVTVSS	high polyreactivity
QVQLVESGGGLVQAGGSLRLSCAASGSTFHTFAMGWYRPAPGKERELVAAINRRTGGTYYADSVKGRFTISRDNAKNTVDLQMNSLKPEDTAVFYCATDWFSYRGGIFDSWGQGTQVTVSS	low polyreactivity
QVQLVESGGGLVQAGGSLRLSCADSGFTFISNAKGWYRQAPGKERELVAAISSSGGRTYYADSVKGRFTISRDNAKNTVYLQMNSLKPEDTAVYYCNADRSLLYSRKIEYDYWGQGTQVTVSS	low polyreactivity
QVQLVESGGGLVQAGGSLRLSCAASGFIISDYAMGWYRQAPGKERELVAVITWRSGSTYYADSVKGRFTISRDNAKNTVYFQMHSLKPVDTAVYYCAARYYRNYSQGRRLGYNYWGQGTQVTVSS	high polyreactivity
